These are literature values, as cited in article PMC9980337.

Several values for one entry are separate records, joined by “and”; a condition that tells them apart may be missing. Identical values can stand only once.

As a reminder, the Kd is the constant that tells how readily two partners part at equilibrium.

For the series, the target named is IL-18 (Homo sapiens) (UniProt Q14116).
IL-18 (Homo sapiens), sequence (Q14116 37-193): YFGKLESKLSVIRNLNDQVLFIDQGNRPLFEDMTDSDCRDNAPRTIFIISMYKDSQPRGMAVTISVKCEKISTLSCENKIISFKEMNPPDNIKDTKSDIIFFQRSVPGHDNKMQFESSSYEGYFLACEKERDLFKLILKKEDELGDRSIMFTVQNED

IL-18BP, sequence (O95998 31-194): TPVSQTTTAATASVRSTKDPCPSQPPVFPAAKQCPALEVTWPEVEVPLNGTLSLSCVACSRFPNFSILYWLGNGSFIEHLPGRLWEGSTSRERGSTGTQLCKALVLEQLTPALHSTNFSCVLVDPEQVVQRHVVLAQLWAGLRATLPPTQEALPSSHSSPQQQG

For the substance IL-18BP (from UniProt O95998), the Kd is 0.4 nM and 0.05 nM.
